For assay [1], the target named is T1, human PD-L1-Fc fusion protein (human, UniProt Q9NZQ7 19-239).
T1 construct: treated as one molecule; also called soluble human PD-L1-Fc fusion protein; human PD-L1-Fc (R&D Systems); not shown: Fc part
Description: SPR (Biacore T200), antibody immobilized, PD-L1-Fc as analyte, 37 C, 1:1 model. The procedure:
(§1) Immobilization of antibodies of the present invention as ligand on to sensor chip surface is performed at 25° C. […] The analysis is performed at 37° C. The contact time for each sample is 180 seconds at 30 μL/minute. The dissociation time was 240-1500 seconds. The immobilized surface is regenerated for 18 seconds with 0.95 M NaCl/25 mM NaOH at 30 μL/minute, and then stabilized for 30 seconds. Binding kinetics are analyzed using the Biacore T200 Evaluation software (Version 3.0). Data are referenced to a blank flow cell, and the data are fit to a 1:1 binding model.

In assay [2] the target is T2, cynomolgus monkey PD-L1-Fc fusion protein (cynomolgus monkey).
T2 construct: Soluble analyte in SPR; also called Cyno PD-L1
The description is as above. On the procedure:
as §1

Assay [3] deals with T3, cell surface PD-L1 on MDA-MB231 cells (human, UniProt Q9NZQ7 19-290).
T3 construct: Endogenous PD-L1 of the human cell line; also called cell surface expressed human PD-L1; MDA-MB 231 cells (PD-L1-positive human breast adenocarcinoma cell line)
Description: flow cytometry on MDA-MB231 cells, biotinylated antibody, streptavidin-PE detection. On the procedure:
Plate are centrifuged at 1200 rpm for 5 minutes and supernatant removed. 100 μL of antibody-biotin (serially diluted by 1:4 starting from 10 μg/ml) is added. A total of 6 serial dilutions are evaluated. After incubation at 4° C. for 30 minutes, cells are washed twice with DPBS. 100 μL of detection buffer containing 5 μL streptavidin-PE is added. After incubation at 4° C. for 30 more minutes, plate is centrifuged and washed twice with DPBS. Cells are re-suspended in 200 μL DPBS for FACS analysis.
(In general: Flow cytometry measures light scatter and fluorescence of single cells or particles in a stream.)

Assay [4] has as its target T1, human PD-L1-Fc fusion protein. Description: ELISA, plate coated with human PD-L1-Fc (R&D Systems), anti-human IgG F(ab')2-HRP detection. The procedure:
Wells are blocked for 2 hours with blocking buffer (PBS containing 5% nonfat dry milk). Wells are washed three times with PBS containing 0.1% TWEEN®-20. […] After washing, the plate is incubated with 100 μL of goat anti-human IgG F(ab′)2-HRP conjugate (Jackson Immuno Research) at room temperature for 1 hour. The plates are washed and then incubated with 100 μL of 3,3′, 5,5′-tetra-methylbenzidine. The absorbance at 450 nm is read on a microplate reader. The half maximal effective concentration (EC₅₀) is calculated using GraphPad Prism 6 software.

Assay [5] has as its target T4, biotinylated PD-L1-Fc fusion protein (Homo sapiens (Human), UniProt Q9NZQ7 19-238, limits assumed, biotinylated (sites not given)).
T4 construct: not shown: Fc part
Description: blocking ELISA: antibody premixed with biotinylated PD-L1-Fc, plate coated with B7-1-Fc (1 ug/ml, R&D Systems). (ELISA stands for enzyme-linked immunosorbent assay.)

For assay [6], the target named is T4, biotinylated PD-L1-Fc fusion protein. Description: blocking ELISA: antibody premixed with biotinylated PD-L1-Fc (100 ng/well), plate coated with PD-1-Fc (1 ug/ml).

T1 sequence (Q9NZQ7 19-239 limits assumed): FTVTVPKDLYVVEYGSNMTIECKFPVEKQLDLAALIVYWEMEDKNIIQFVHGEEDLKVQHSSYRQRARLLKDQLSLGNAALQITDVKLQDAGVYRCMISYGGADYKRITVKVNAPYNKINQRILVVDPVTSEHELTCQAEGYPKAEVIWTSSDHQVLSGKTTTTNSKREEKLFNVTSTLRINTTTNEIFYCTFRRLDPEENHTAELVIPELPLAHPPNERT
T4 sequence (Q9NZQ7 19-238 limits assumed): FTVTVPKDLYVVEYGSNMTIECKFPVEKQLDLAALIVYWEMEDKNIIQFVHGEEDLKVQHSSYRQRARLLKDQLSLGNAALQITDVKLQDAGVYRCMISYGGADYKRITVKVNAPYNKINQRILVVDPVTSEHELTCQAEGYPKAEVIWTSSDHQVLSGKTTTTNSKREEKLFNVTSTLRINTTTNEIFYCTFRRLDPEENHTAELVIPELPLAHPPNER
T3 sequence (Q9NZQ7 19-290 limits assumed): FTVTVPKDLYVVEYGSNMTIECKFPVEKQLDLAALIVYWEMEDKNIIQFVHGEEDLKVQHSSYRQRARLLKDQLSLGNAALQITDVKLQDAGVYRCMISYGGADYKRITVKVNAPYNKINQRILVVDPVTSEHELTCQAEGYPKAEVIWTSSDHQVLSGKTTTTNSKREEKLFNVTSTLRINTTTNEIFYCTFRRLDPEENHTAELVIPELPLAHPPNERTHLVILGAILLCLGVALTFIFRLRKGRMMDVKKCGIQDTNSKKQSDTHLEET

B1: LY3300054 (antibody, human IgG1, lambda, V domains shown)
VH: QVQLVQSGAEVKKPGSSVKVSCKASGGTFSSYAISWVRQAPGQGLEWMGGIIPIFGTANYAQKFQGRVTITADKSTSTAYMELSSLRSEDTAVYYCARSPDYSPYYYYGMDVWGQGTTVTVSS
VL: QSVLTQPPSASGTPGQRVTISCSGSSSNIGSNTVNWYQQLPGTAPKLLIYGNSNRPSGVPDRFSGSKSGTSASLAISGLQSEDEADYYCQSYDSSLSGSVFGGGIKLTVLG
notes: Biotinylated antibody was used in the flow cytometry assay; also called anti-PD-L1 antibody
Turning to B1, the Kd was 0.082 nM in assay [1] and 0.122 nM in assay [2]. Besides, the values for the koff in assay [1] and in assay [2] were 0.000114 s⁻¹ and 0.000184 s⁻¹, respectively. Moreover, the kon was 1.4e+06 M⁻¹ s⁻¹ in assay [1] and 1.51e+06 M⁻¹ s⁻¹ in assay [2]. Also, the EC50 was 0.14 nM in assay [3] and 0.11 nM in assay [4]. In addition, the IC50 in assay [5] was 2.4 nM; in assay [6] it was 0.95 nM.

For orientation: Kd means the free concentration of one partner at which half of the binding sites on the other are occupied at equilibrium, for simple one-to-one binding. As a reminder, the koff is the rate constant with which the complex falls apart. What is called kon is the rate constant with which the complex forms. As usually defined, the EC50 is the concentration that produces a half-maximal response. A word on the IC50: it is the concentration that inhibits the measured activity by half.

The values are drawn from patent US20190269666A1 (Eli Lilly, published 2019).
